According to patent publication US10538591B2, “Anti-fibulin-3 antibodies and uses thereof” (THE BRIGHAM AND WOMEN'S HOSPITAL, INC., priority 2014, dated 2020):

How the values were obtained:
[1] = test system: U251MG glioma cells; assay: Temozolomide combination viability assay in U251MG cells; format: cell-based, human; details: increasing concentrations, 72 h
Procedure: The antibody increased the cytotoxicity of TMZ by 30% in average.
Antibodies against fibulin-3 can potentiate the effect of a chemotherapeutic drug. Glioma cells (U251MG cell line) were cultured in presence of increasing doses of temozolomide, which is the standard-of-care drug for treatment of malignant glioma. The drug was combined with antibody vehicle (PBS) or with a fixed dose of anti-Fib3/911 antibody. Viability of the cells was analyzed after 72 h, which is a time period at which temozolomide has only a modest effect on glioma cells.

[2] = test system: U251 glioblastoma cells
Procedure: In FIG. 27C, U251 glioblastoma cells (5,000 cells/well) were incubated in conditioned medium from control-HEK293 or scFv-expressing HEK293 (1.5 mg/ml total protein). After 48 h cell viability was measured using the CellTiter-Glo kit to measure ATP production (PROMEGA cat #G7572).

[3] = target: T1, purified human fibulin-3 (Homo sapiens, UniProt Q12805); assay: Western blot and dot-blot detection of fibulin-3; format: binding; details: for detection of fibulin-3 by Western blotting: SDS-PAGE, reducing and/or non-reducing conditions
T1 construct: purchased ORIGENE
T1 sequence (Q12805 18-493): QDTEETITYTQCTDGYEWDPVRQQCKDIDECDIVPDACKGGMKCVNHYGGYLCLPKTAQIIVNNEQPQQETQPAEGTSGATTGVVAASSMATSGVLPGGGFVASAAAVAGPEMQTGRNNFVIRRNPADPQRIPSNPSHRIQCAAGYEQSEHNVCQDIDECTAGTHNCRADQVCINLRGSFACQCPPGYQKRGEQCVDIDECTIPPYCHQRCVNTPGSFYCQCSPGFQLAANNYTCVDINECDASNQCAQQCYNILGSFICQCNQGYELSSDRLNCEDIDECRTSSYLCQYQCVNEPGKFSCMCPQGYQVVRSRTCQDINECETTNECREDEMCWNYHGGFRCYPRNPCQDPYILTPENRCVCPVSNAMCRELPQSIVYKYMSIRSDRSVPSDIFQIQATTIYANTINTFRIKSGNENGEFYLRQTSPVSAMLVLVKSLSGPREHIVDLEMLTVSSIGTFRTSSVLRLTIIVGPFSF
Procedure: CNSI glioma cells were transfected with fibulin-3 cDNA (fib3-OE cells) or a control plasmid (control cells) and cultured for 24 h in serum-free conditions. Conditioned medium was collected and probed by Western blotting with anti-Fib3/911 (911), anti-Fib3/912 (912), or their respective preimmune sera (antibodies and sera were used at 1/5000 dilution).
Two rabbit polyclonal antibodies were commissioned against the 23-amino acid peptide sequence of fibulin-3 involved in Notch activation. The peptide was minimally modified to facilitate the formation of a disulfide bridge necessary to form a conformational, tri-dimensional epitope (FIG. 4). Antibodies against fibulin-3 (“anti-Fib3/911” and “anti-Fib3/912”) were purified by affinity chromatography, aliquoted, and prepared in phosphate-buffered saline (PBS) solution for all subsequent tests.
Purified human fibulin-3 (200 ng/lane, ORIGENE) was subjected to SDS-PAGE in reducing and non-reducing conditions and probed with affinity-purified mAb428.3C11 (0.4 to 20 μg/ml, diluted in PBS from a 2 mg/ml stock).
Concentrated, serum-free culture medium from HEK293 cells (1 mg/ml total protein) was probed with anti-human IgG secondary antibody (HRP conjugate) to detect the chains of antibody in reducing and non-reducing conditions. C) Concentrated medium from HEK293 cells (1 mg/ml total protein) was directly used to probe purified human fibulin-3 (resolved by SDS-PAGE in non-reducing conditions).

Molecule: Cn1nnc2c(C(N)=O)ncn2c1=O [TMZ, temozolomide]
- cytotoxic effect of TMZ alone [1]: modest, dose-dependent cytoxic effect

B1: scFv428.2: single-chain variable fragment derived from mAb428.2, VL-(G4S)3-VH with Myc and 6xHis tags; SEQ ID NOS: 25, 26 (protein)
scFv: DDIKMTQSPSSMYASLGERVTITCKASQDIKSYLSWHQQKPWKSPKTLIYYATSLADGVPSRFSGSGSGQDYSLTISSLESDDTATYYCLQHGKSPYTFGGGTKLEIKGGGGSGGGGSGGGGSQIQLVQSGPELKKPGETVKISCKASGYSFTTYGMSWVKQAPGKGLKWMGWINTYSGVPTYADDFKGRFAFFLETSASTAYLQINNLKNEDTATYFCARWVDYWGQGTTLTVSSEQKLISEEDLNMHTGHHHHHH
- cytotoxicity of culture media with scFv [2]: induce cytotoxicity in glioblastoma cells
- detection of fibulin-3 by Western blotting [3]: can detect denatured fibulin in reducing and non-reducing conditions
- detection of native fibulin-3 by dot-blotting ([3]; non-reduced fibulin-3 on nitrocellulose, scFv428.2 medium 1 mg/ml, mAb428.2 1 μg/ml): able to detect native fibulin-3 by dot-blotting

B2: chimeric mouse/human mAb428.2: recombinant chimeric antibody with VL and VH of mAb428.2; light chain SEQ ID NO: 23, heavy chain SEQ ID NO: 24 (antibody)
heavy: MYRMQLLSCIALSLALVTNSEVQLVEQIQLVQSGPELKKPGETVKISCKASGYSFTTYGMSWVKQAPGKGLKWMGWINTHSGVPTYADDFKGRFAFFLETSASTAYLQINNLKNEDTATYFCARWVDYWGQGTTLTVSSGTLVTVSSASTKGPSVFPLAPSSKSTSGGTAALGCLVKDYFPEPVTVSWNSGALTSGVHTFPAVLQSSGLYSLSSVVTVPSSSLGTQTYICNVNHKPSNTKVDKKVEPKSCDKTHTCPPCPAPELLGGPSVFIFPPKPKDVLTITLTPKVTCVVVDISKDDPEVQFSWFVDDVEVHTAQTQPREEQFNSTFRSVSELPIMHQDWLNGKEFKCRVNSAAFPAPIEKTISKTKGRPKAPQVYTIPPPKEQMAKDKVSLTCMITDFFPEDITVEWQWNGQPAENYKNTQPIMDTDGSYFVYSKLNVQKSNWEAGNTFTCSVLHEGLHNHHTEKSLSHSPGK
light: MQLLSCIALSLALVTNSDIQMTQSPSSLSASVGDRVTITCRASQSVSSADIKMTQSPSSMYASLGERVTITCKASQDIKSYLSWHQQKPWKSPKTLIYYATSLADGVPSRFSGSGSGQDYSLTISSLESDDTATYYCLQHGKSPYTFGGGTKLEIKGTKVEIKRTVAAPSVFIFPPSDSQLKSGTASVVCLLNNFYPREAKVQWKVDNALQSGNSQESVTEQDSKDSTYSLSSTLTLSKADYEKHKVYACEVTHQGLSSPVTKSFNRGEC
- detection of fibulin-3 by Western blotting [3]: detects the same pattern of bands as purified mouse mAb428.2
